{"source": "paper doi:10.1101/2021.03.16.435614", "molecular_target": "CTD (C-terminal domain) of SOQ1 (SUPPRESSOR OF QUENCHING1), recombinant (Arabidopsis thaliana)", "assay": "MST", "data": [{"substance": "Trx-like domain of SOQ1 (SUPPRESSOR OF QUENCHING1), recombinant (domain or fragment)", "values": [{"measurement": "Kd", "result": 8.76, "unit": "µM"}]}]}
